IntAct's records for PubMed 17409324

B1: Vang-like protein 1 (Homo sapiens), Q8TAA9 (parent)
chain: MDTESTYSGYSYYSSHSKKSHRQGERTRERHKSPRNKDGRGSEKSVTIQPPTGEPLLGNDSTRTEEVQDDNWGETTTAITGTSEHSISQEDIARISKDMEDSVGLDCKRYLGLTVASFLGLLVFLTPIAFILLPPILWRDELEPCGTICEGLFISMAFKLLILLIGTWALFFRKRRADMPRVFVFRALLLVLIFLFVVSYWLFYGVRILDSRDRNYQGIVQYAVSLVDALLFIHYLAIVLLELRQLQPMFTLQVVRSTDGESRFYSLGHLSIQRAALVVLENYYKDFTIYNPNLLTASKFRAAKHMAGLKVYNVDGPSNNATGQSRAMIAAAARRRDSSHNELYYEEAEHERRVKKRKARLVVAVEEAFIHIQRLQAEEQQKAPGEVMDPREAAQAIFPSMARALQKYLRITRQQNYHSMESILQHLAFCITNGMTPKAFLERYLSAGPTLQYDKDRWLSTQWRLVSDEAVTNGLRDGIVFVLKCLDFSLVVNVKKIPFIILSEEFIDPKSHKFVLRLQSETSV
partner: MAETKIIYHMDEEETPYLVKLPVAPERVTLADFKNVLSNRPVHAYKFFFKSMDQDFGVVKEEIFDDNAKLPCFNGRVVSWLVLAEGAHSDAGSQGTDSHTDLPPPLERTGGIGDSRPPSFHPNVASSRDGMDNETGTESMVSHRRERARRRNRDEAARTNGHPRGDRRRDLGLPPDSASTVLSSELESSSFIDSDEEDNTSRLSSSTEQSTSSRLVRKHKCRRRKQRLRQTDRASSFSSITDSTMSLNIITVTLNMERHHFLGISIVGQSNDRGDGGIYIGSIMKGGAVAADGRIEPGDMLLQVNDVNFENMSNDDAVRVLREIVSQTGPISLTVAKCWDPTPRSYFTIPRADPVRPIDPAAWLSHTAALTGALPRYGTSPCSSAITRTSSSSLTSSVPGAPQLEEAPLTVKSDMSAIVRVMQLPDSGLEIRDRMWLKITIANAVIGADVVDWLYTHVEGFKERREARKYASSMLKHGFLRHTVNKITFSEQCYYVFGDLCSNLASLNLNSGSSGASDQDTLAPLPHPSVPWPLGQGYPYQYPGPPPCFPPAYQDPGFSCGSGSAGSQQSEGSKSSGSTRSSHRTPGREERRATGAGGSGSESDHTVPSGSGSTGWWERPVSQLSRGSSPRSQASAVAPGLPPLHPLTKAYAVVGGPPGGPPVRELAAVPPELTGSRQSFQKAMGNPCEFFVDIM
B2: Vang-like protein 1 (Homo sapiens), Q8TAA9 (parent)
chain: B1 chain
partner: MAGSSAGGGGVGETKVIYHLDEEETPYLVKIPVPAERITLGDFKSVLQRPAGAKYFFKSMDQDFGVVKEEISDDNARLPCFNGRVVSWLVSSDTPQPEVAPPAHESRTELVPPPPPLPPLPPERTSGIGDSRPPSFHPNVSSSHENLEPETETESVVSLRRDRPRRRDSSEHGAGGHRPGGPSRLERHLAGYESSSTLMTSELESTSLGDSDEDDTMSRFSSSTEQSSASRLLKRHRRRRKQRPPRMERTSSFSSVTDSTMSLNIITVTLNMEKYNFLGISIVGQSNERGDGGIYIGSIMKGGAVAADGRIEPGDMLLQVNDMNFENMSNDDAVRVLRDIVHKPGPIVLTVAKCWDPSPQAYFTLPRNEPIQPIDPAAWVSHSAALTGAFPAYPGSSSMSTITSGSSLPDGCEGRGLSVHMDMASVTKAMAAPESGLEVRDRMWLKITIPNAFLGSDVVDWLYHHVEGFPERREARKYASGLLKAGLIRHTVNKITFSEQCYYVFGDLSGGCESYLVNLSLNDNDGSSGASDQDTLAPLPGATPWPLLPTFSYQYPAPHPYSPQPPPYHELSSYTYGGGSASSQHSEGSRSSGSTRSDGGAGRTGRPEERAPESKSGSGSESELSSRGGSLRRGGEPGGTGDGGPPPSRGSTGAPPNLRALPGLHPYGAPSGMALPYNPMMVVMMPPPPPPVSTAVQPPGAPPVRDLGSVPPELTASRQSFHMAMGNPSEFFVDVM
B3: Vang-like protein 1 (Homo sapiens), Q8TAA9 (parent)
chain: B1 chain
partner: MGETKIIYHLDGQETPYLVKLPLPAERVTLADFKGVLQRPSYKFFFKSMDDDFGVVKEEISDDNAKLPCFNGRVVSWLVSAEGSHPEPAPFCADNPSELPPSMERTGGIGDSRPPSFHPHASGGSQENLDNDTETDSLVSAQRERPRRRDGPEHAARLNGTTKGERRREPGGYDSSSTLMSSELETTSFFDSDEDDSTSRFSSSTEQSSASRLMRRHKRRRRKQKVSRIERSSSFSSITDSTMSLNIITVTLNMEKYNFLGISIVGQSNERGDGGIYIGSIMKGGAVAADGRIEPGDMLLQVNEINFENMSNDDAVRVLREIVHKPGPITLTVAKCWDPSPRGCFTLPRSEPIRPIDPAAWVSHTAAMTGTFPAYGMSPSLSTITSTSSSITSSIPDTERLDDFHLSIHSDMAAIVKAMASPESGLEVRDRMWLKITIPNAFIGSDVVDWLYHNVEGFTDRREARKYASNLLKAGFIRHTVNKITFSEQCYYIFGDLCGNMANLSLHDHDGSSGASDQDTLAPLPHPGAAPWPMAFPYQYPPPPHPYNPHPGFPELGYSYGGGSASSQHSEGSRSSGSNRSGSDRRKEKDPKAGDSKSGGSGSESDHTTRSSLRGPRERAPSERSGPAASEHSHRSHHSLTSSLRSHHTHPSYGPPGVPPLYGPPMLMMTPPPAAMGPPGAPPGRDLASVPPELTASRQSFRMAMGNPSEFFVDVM

Variants of: B1
Details: with dvl1_mouse Dvl1, P51141

Row | effect of a mutation on the interaction | Variant
1 | with no effect | M328T
2 | disrupting interaction strength | D259E
3 | disrupting interaction strength | V239I
4 | disrupting interaction strength | S467N
5 | with no effect | R274Q

Variants of: B2
Details: with dvl2_mouse Dvl2, Q60838

Row | effect of a mutation on the interaction | Variant
6 | disrupting interaction strength | D259E
7 | with no effect | R274Q
8 | disrupting interaction strength | V239I
9 | decreasing interaction strength | S467N
10 | with no effect | M328T

Variants of: B3
Details: with dvl3_mouse Dvl3, Q61062

Row | effect of a mutation on the interaction | Variant
11 | with no effect | M328T
12 | with no effect | R274Q
13 | disrupting interaction strength | V239I
14 | with no effect | S467N
15 | disrupting interaction strength | D259E
